Source: patent publication US20240117018A1

Experiments:
Test in all cases: cell-based or functional assay
[1] = biological target: HIV-1 Env of pseudovirus 0815.v3.c3 (HIV-1)
[2] = biological target: HIV-1 Env of pseudovirus 191084 B7-19 (HIV-1)
[3] = biological target: HIV-1 Env of pseudovirus 191955_A11 (HIV-1)
[4] = biological target: HIV-1 Env of pseudovirus 211-9 (HIV-1)
[5] = biological target: HIV-1 Env of pseudovirus 231966.c02 (HIV-1)
[6] = biological target: HIV-1 Env of pseudovirus 235-47 (HIV-1)
[7] = biological target: HIV-1 Env of pseudovirus 263-8 (HIV-1)
[8] = biological target: HIV-1 Env of pseudovirus 3103.v3.c10 (HIV-1)
[9] = biological target: HIV-1 Env of pseudovirus 3301.v1.c24 (HIV-1)
[10] = biological target: HIV-1 Env of pseudovirus 3817.v2.c59 (HIV-1)
[11] = biological target: HIV-1 Env of pseudovirus 6041.v3.c23 (HIV-1)
[12] = biological target: HIV-1 Env of pseudovirus 6480.v4.c25 (HIV-1)
[13] = biological target: HIV-1 Env of pseudovirus 6540.v4.c1 (HIV-1)
[14] = biological target: HIV-1 Env of pseudovirus 6811.v7.c18 (HIV-1)
[15] = biological target: HIV-1 Env of pseudovirus 89-F1_2_25 (HIV-1)
[16] = biological target: HIV-1 Env of pseudovirus 928-28 (HIV-1)
[17] = biological target: HIV-1 Env of pseudovirus BJOX009000.02.4 (HIV-1)
[18] = biological target: HIV-1 Env of pseudovirus BJOX010000.06.2 (HIV-1)
[19] = biological target: HIV-1 Env of pseudovirus BJOX015000.11.5 (HIV-1)
[20] = biological target: HIV-1 Env of pseudovirus BJOX025000.01.1 (HIV-1)
[21] = biological target: HIV-1 Env of pseudovirus BJOX028000.10.3 (HIV-1)
[22] = biological target: HIV-1 Env of pseudovirus C1080.c03 (HIV-1)
[23] = biological target: HIV-1 Env of pseudovirus C3347.c11 (HIV-1)
[24] = biological target: HIV-1 Env of pseudovirus C4118.c09 (HIV-1)
[25] = biological target: HIV-1 Env of pseudovirus P0402_c2_11 (HIV-1)
[26] = biological target: HIV-1 Env of pseudovirus P1981_C5_3 (HIV-1)
[27] = biological target: HIV-1 Env of pseudovirus R1166.c01 (HIV-1)
[28] = biological target: HIV-1 Env of pseudovirus R2184.c04 (HIV-1)
[29] = biological target: HIV-1 Env of pseudovirus R3265.c06 (HIV-1)
[30] = biological target: HIV-1 Env of pseudovirus T251-18 (HIV-1)
[31] = biological target: HIV-1 Env of pseudovirus T255-34 (HIV-1)
[32] = biological target: HIV-1 Env of pseudovirus T257-31 (HIV-1)
[33] = biological target: HIV-1 Env of pseudovirus X1193_c1 (HIV-1)
[34] = biological target: HIV-1 Env of pseudovirus X1632_S2_B10 (HIV-1)
[35] = biological target: HIV-1 Env of pseudovirus X2088_c9 (HIV-1)
[36] = biological target: HIV-1 Env of pseudovirus X2131_C1_B5 (HIV-1)

With PGDM1400 (antibody) as the substance, how does the IC50 (Titer in TZM.bl cells) [1] read?
Its IC50 (Titer in TZM.bl cells) is > 50 µg/mL.

And the IC80 (Titer in TZM.bl cells) [1]?
Its IC80 (Titer in TZM.bl cells) is > 50 µg/mL.

What about the neutralization IC50 [2] of the same substance?
Its neutralization IC50 is < 0.001 µg/mL.

And the neutralization IC80 [2]?
The neutralization IC80 was 0.007 µg/mL.

What about the neutralization IC50 [3] of the same substance?
The neutralization IC50 was 0.001 µg/mL.

And the neutralization IC80 [3]?
Its neutralization IC80 is 0.021 µg/mL.

And the IC50 (Titer in TZM.bl cells) [4]?
Its IC50 (Titer in TZM.bl cells) is 0.088 µg/mL.

And the IC80 (Titer in TZM.bl cells) [4]?
The IC80 (Titer in TZM.bl cells) was 0.393 µg/mL.

What about the IC50 (Titer in TZM.bl cells) [5] of the same substance?
The IC50 (Titer in TZM.bl cells) was 0.001 µg/mL.

And the IC80 (Titer in TZM.bl cells) [5]?
The IC80 (Titer in TZM.bl cells) was 0.004 µg/mL.

What about the IC50 (Titer in TZM.bl cells) [6] of the same substance?
Its IC50 (Titer in TZM.bl cells) is 0.005 µg/mL.

And the IC80 (Titer in TZM.bl cells) [6]?
Its IC80 (Titer in TZM.bl cells) is 0.032 µg/mL.

And the neutralization IC50 [7]?
Its neutralization IC50 is 0.02 µg/mL.

What about the neutralization IC80 [7] of the same substance?
The neutralization IC80 was 0.103 µg/mL.

And the IC50 (Titer in TZM.bl cells) [8]?
Its IC50 (Titer in TZM.bl cells) is 0.671 µg/mL.

What about the IC80 (Titer in TZM.bl cells) [8] of the same substance?
The IC80 (Titer in TZM.bl cells) was 2 µg/mL.

And the IC50 (Titer in TZM.bl cells) [9]?
The IC50 (Titer in TZM.bl cells) was 0.048 µg/mL.

And the IC80 (Titer in TZM.bl cells) [9]?
The IC80 (Titer in TZM.bl cells) was 0.245 µg/mL.

What about the IC50 (Titer in TZM.bl cells) [10] of the same substance?
Its IC50 (Titer in TZM.bl cells) is > 50 µg/mL.

What about the IC80 (Titer in TZM.bl cells) [10] of the same substance?
The IC80 (Titer in TZM.bl cells) was > 50 µg/mL.

What about the IC50 (Titer in TZM.bl cells) [11] of the same substance?
The IC50 (Titer in TZM.bl cells) was 0.013 µg/mL.

What about the IC80 (Titer in TZM.bl cells) [11] of the same substance?
Its IC80 (Titer in TZM.bl cells) is 0.289 µg/mL.

What about the IC50 (Titer in TZM.bl cells) [12] of the same substance?
Its IC50 (Titer in TZM.bl cells) is > 50 µg/mL.

What about the IC80 (Titer in TZM.bl cells) [12] of the same substance?
The IC80 (Titer in TZM.bl cells) was > 50 µg/mL.

And the IC50 (Titer in TZM.bl cells) [13]?
The IC50 (Titer in TZM.bl cells) was 0.004 µg/mL.

And the IC80 (Titer in TZM.bl cells) [13]?
The IC80 (Titer in TZM.bl cells) was 0.028 µg/mL.

What about the IC50 (Titer in TZM.bl cells) [14] of the same substance?
Its IC50 (Titer in TZM.bl cells) is > 50 µg/mL.

And the IC80 (Titer in TZM.bl cells) [14]?
The IC80 (Titer in TZM.bl cells) was > 50 µg/mL.

And the IC50 (Titer in TZM.bl cells) [15]?
The IC50 (Titer in TZM.bl cells) was 0.001 µg/mL.

What about the IC80 (Titer in TZM.bl cells) [15] of the same substance?
Its IC80 (Titer in TZM.bl cells) is 0.005 µg/mL.

And the neutralization IC50 [16]?
Its neutralization IC50 is 0.22 µg/mL.

What about the neutralization IC80 [16] of the same substance?
The neutralization IC80 was 1.25 µg/mL.

What about the IC50 (Titer in TZM.bl cells) [17] of the same substance?
The IC50 (Titer in TZM.bl cells) was 0.443 µg/mL.

And the IC80 (Titer in TZM.bl cells) [17]?
The IC80 (Titer in TZM.bl cells) was 1.29 µg/mL.

What about the IC50 (Titer in TZM.bl cells) [18] of the same substance?
Its IC50 (Titer in TZM.bl cells) is 0.605 µg/mL.

What about the IC80 (Titer in TZM.bl cells) [18] of the same substance?
The IC80 (Titer in TZM.bl cells) was 5.87 µg/mL.

What about the IC50 (Titer in TZM.bl cells) [19] of the same substance?
Its IC50 (Titer in TZM.bl cells) is 0.52 µg/mL.

And the IC80 (Titer in TZM.bl cells) [19]?
The IC80 (Titer in TZM.bl cells) was 10.6 µg/mL.

What about the IC50 (Titer in TZM.bl cells) [20] of the same substance?
The IC50 (Titer in TZM.bl cells) was 0.087 µg/mL.

What about the IC80 (Titer in TZM.bl cells) [20] of the same substance?
The IC80 (Titer in TZM.bl cells) was 0.573 µg/mL.

And the IC50 (Titer in TZM.bl cells) [21]?
Its IC50 (Titer in TZM.bl cells) is 0.072 µg/mL.

What about the IC80 (Titer in TZM.bl cells) [21] of the same substance?
Its IC80 (Titer in TZM.bl cells) is 0.963 µg/mL.

And the IC50 (Titer in TZM.bl cells) [22]?
The IC50 (Titer in TZM.bl cells) was < 0.001 µg/mL.

And the IC80 (Titer in TZM.bl cells) [22]?
Its IC80 (Titer in TZM.bl cells) is < 0.001 µg/mL.

And the IC50 (Titer in TZM.bl cells) [23]?
The IC50 (Titer in TZM.bl cells) was 0.011 µg/mL.

And the IC80 (Titer in TZM.bl cells) [23]?
Its IC80 (Titer in TZM.bl cells) is 0.051 µg/mL.

What about the IC50 (Titer in TZM.bl cells) [24] of the same substance?
The IC50 (Titer in TZM.bl cells) was 0.002 µg/mL.

What about the IC80 (Titer in TZM.bl cells) [24] of the same substance?
Its IC80 (Titer in TZM.bl cells) is 0.005 µg/mL.

And the IC50 (Titer in TZM.bl cells) [25]?
Its IC50 (Titer in TZM.bl cells) is 0.01 µg/mL.

What about the IC80 (Titer in TZM.bl cells) [25] of the same substance?
Its IC80 (Titer in TZM.bl cells) is 0.033 µg/mL.

What about the IC50 (Titer in TZM.bl cells) [26] of the same substance?
The IC50 (Titer in TZM.bl cells) was 0.104 µg/mL.

And the IC80 (Titer in TZM.bl cells) [26]?
The IC80 (Titer in TZM.bl cells) was 4.6 µg/mL.

What about the IC50 (Titer in TZM.bl cells) [27] of the same substance?
Its IC50 (Titer in TZM.bl cells) is 1.43 µg/mL.

What about the IC80 (Titer in TZM.bl cells) [27] of the same substance?
Its IC80 (Titer in TZM.bl cells) is 6.92 µg/mL.

What about the IC50 (Titer in TZM.bl cells) [28] of the same substance?
Its IC50 (Titer in TZM.bl cells) is 0.003 µg/mL.

And the IC80 (Titer in TZM.bl cells) [28]?
Its IC80 (Titer in TZM.bl cells) is 0.012 µg/mL.

What about the IC50 (Titer in TZM.bl cells) [29] of the same substance?
The IC50 (Titer in TZM.bl cells) was 0.013 µg/mL.

And the IC80 (Titer in TZM.bl cells) [29]?
The IC80 (Titer in TZM.bl cells) was 0.041 µg/mL.

And the IC50 (Titer in TZM.bl cells) [30]?
Its IC50 (Titer in TZM.bl cells) is 8.62 µg/mL.

And the IC80 (Titer in TZM.bl cells) [30]?
Its IC80 (Titer in TZM.bl cells) is 43.1 µg/mL.

And the IC50 (Titer in TZM.bl cells) [31]?
The IC50 (Titer in TZM.bl cells) was 0.654 µg/mL.

What about the IC80 (Titer in TZM.bl cells) [31] of the same substance?
Its IC80 (Titer in TZM.bl cells) is > 50 µg/mL.

What about the neutralization IC50 [32] of the same substance?
Its neutralization IC50 is 0.002 µg/mL.

And the neutralization IC80 [32]?
Its neutralization IC80 is 0.031 µg/mL.

What about the IC50 (Titer in TZM.bl cells) [33] of the same substance?
Its IC50 (Titer in TZM.bl cells) is 0.219 µg/mL.

And the IC80 (Titer in TZM.bl cells) [33]?
Its IC80 (Titer in TZM.bl cells) is 0.781 µg/mL.

And the IC50 (Titer in TZM.bl cells) [34]?
Its IC50 (Titer in TZM.bl cells) is 0.055 µg/mL.

What about the IC80 (Titer in TZM.bl cells) [34] of the same substance?
Its IC80 (Titer in TZM.bl cells) is 1.45 µg/mL.

And the IC50 (Titer in TZM.bl cells) [35]?
Its IC50 (Titer in TZM.bl cells) is > 50 µg/mL.

And the IC80 (Titer in TZM.bl cells) [35]?
The IC80 (Titer in TZM.bl cells) was > 50 µg/mL.

And the IC50 (Titer in TZM.bl cells) [36]?
The IC50 (Titer in TZM.bl cells) was 0.128 µg/mL.

And the IC80 (Titer in TZM.bl cells) [36]?
The IC80 (Titer in TZM.bl cells) was 0.568 µg/mL.
